Assay results reported in patent US5612455, “Nuclear factors and binding assay” (Tularik, Inc.).

Experiments:
[1] = molecular target: T1, NFAT3 full length (Homo sapiens) (UniProt Q14934); assay: cell_activity; settings: HepG2 cells; COS cells 50-fold independent of PMA and ionomycin
T1 sequence: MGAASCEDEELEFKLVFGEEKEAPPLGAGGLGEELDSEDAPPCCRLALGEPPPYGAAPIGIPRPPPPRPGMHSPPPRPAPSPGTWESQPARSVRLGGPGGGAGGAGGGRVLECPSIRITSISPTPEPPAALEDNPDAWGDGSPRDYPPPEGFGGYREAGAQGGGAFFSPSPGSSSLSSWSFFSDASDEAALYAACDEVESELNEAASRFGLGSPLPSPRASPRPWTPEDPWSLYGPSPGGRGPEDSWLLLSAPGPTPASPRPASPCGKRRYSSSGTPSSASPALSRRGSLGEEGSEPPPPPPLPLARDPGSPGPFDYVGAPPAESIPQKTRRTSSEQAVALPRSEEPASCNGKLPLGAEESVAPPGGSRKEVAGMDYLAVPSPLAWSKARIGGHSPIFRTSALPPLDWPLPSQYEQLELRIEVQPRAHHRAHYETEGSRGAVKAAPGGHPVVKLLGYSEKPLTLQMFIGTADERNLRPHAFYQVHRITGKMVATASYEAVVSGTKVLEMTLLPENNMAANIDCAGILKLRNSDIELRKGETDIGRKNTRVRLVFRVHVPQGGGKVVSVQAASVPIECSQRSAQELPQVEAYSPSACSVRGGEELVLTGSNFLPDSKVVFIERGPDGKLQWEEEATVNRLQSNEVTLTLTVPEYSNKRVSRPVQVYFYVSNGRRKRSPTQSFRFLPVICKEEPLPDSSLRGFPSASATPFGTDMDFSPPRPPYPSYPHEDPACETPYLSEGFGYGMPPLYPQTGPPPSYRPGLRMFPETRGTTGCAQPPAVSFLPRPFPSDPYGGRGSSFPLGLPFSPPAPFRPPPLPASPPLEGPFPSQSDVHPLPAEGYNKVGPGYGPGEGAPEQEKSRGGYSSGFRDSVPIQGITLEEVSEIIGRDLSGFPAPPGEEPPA

[2] = molecular target: NFATc rel domain + c-Jun/Fra-1 (Homo sapiens, UniProt O95644-2;P05412;P15407 O95644-2:408-716,P05412:1-331,P15407:1-271); assay: EMSA; highly cooperative; jun homodimers less effective; exact EMSA probe not stated; settings: tags: NFATc HMK site
Chain of NFATc rel domain + c-Jun/Fra-1 (P05412 whole entry, chain 2 of 2, the tested form may be a part): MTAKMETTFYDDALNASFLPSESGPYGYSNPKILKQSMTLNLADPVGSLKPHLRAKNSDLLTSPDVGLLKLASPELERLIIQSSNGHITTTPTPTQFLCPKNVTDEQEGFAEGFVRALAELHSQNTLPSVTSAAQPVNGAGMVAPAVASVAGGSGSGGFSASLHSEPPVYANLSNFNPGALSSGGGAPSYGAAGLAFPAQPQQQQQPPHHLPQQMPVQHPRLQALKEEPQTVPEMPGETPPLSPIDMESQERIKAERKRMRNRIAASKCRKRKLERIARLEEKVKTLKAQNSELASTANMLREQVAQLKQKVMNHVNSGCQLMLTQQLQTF
Chain of NFATc rel domain + c-Jun/Fra-1 (P15407 whole entry, chain 3 of 2, the tested form may be a part): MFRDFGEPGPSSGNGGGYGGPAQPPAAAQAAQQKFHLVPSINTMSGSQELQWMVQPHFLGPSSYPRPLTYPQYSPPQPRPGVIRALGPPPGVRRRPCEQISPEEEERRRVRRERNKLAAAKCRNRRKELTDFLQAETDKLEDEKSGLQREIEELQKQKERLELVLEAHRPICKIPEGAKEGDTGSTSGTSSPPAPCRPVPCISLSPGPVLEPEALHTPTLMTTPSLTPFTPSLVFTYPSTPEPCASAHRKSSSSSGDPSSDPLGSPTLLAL

[3] = molecular target: NFAT3 rel domain + c-Jun/Fra-1 (Homo sapiens, UniProt Q14934;P05412;P15407 Q14934:400-744,P05412:1-331,P15407:1-271); assay: as above; settings: tags: NFAT3 HMK site
Chain of NFAT3 rel domain + c-Jun/Fra-1 (P05412 whole entry, chain 2 of 2, the tested form may be a part): as the sequence (P05412 whole entry, chain 2 of 2, the tested form may be a part) above
Chain of NFAT3 rel domain + c-Jun/Fra-1 (P15407 whole entry, chain 3 of 2, the tested form may be a part): as the sequence (P15407 whole entry, chain 3 of 2, the tested form may be a part) above

[4] = molecular target: NFAT4 rel domain + c-Jun/Fra-1 (Homo sapiens, UniProt Q12968;P05412;P15407 Q12968:393-708,P05412:1-331,P15407:1-271); assay: EMSA; highly cooperative; NFAT4 alone does not bind; jun homodimers less effective; exact EMSA probe not stated; settings: tags: NFAT4 HMK site
Chain of NFAT4 rel domain + c-Jun/Fra-1 (P05412 whole entry, chain 2 of 2, the tested form may be a part): as the sequence (P05412 whole entry, chain 2 of 2, the tested form may be a part) above
Chain of NFAT4 rel domain + c-Jun/Fra-1 (P15407 whole entry, chain 3 of 2, the tested form may be a part): as the sequence (P15407 whole entry, chain 3 of 2, the tested form may be a part) above

[5] = molecular target: NFATp rel domain + c-Jun/Fra-1 (Homo sapiens, UniProt Q13469;P05412;P15407 Q13469:392-744,P05412:1-331,P15407:1-271); assay: EMSA; highly cooperative; similar affinity for all four NFATs; jun homodimers less effective; exact EMSA probe not stated; settings: tags: NFATp HMK site
Chain of NFATp rel domain + c-Jun/Fra-1 (Q13469 392-744, chain 1 of 3): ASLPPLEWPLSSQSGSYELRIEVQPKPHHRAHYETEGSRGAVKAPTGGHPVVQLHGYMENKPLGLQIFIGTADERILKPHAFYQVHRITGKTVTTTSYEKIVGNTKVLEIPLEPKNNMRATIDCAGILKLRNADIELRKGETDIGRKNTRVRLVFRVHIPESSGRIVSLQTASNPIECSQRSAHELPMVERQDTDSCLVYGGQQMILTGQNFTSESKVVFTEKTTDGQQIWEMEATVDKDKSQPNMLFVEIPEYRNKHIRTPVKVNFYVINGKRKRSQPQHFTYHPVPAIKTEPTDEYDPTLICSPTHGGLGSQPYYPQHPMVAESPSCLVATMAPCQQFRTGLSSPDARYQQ
Chain of NFATp rel domain + c-Jun/Fra-1 (P05412 whole entry, chain 2 of 3, the tested form may be a part): as the sequence (P05412 whole entry, chain 2 of 2, the tested form may be a part) above
Chain of NFATp rel domain + c-Jun/Fra-1 (P15407 whole entry, chain 3 of 3, the tested form may be a part): as the sequence (P15407 whole entry, chain 3 of 2, the tested form may be a part) above

[6] = molecular target: T2, NFAT4 rel domain (Homo sapiens, UniProt Q12968 SEQ:393-708); assay: EMSA; binding not detectable; core only printed; settings: tags: N-terminal 8 aa heart muscle kinase site (pT7-HMK), E. coli
T2 sequence: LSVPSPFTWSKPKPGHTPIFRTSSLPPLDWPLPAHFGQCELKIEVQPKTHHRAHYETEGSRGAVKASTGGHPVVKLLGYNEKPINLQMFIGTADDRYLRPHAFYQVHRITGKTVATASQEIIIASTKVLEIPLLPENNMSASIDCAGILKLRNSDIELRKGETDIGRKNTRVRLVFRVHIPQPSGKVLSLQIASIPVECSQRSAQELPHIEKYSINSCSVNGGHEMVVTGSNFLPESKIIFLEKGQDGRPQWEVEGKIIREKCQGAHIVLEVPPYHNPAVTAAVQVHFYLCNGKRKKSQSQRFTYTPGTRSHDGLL

[7] = molecular target: T2, NFAT4 rel domain; assay: EMSA; probe length not stated, core SEQ 15; also purified on SEQ 17 resin; settings: tags: N-terminal 8 aa heart muscle kinase site (pT7-HMK), E. coli
[8] = molecular target: T3, NFATc rel domain (NFATc-309) (Homo sapiens, UniProt O95644 SEQ:408-716); assay: EMSA; probe length not stated, core SEQ 15; affinity similar to NFATp and NFAT3; also purified on SEQ 17 resin; settings: tags: N-terminal 8 aa heart muscle kinase site (pT7-HMK), E. coli
T3 sequence: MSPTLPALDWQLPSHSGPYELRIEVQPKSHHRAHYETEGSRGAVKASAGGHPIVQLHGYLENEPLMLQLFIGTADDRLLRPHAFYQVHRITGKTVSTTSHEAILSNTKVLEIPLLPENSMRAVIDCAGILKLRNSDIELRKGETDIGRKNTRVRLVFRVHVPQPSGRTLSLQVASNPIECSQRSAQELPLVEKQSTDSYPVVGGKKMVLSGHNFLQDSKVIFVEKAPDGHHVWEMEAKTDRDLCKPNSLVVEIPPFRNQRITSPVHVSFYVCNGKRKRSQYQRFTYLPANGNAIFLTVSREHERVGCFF

[9] = molecular target: T4, NFAT3 rel domain (Homo sapiens, UniProt Q14934 SEQ:400-744); assay: EMSA; probe length not stated, core SEQ 15; affinity similar to NFATp and NFATc; also purified on SEQ 17 resin; settings: tags: N-terminal 8 aa heart muscle kinase site (pT7-HMK), E. coli
T4 sequence: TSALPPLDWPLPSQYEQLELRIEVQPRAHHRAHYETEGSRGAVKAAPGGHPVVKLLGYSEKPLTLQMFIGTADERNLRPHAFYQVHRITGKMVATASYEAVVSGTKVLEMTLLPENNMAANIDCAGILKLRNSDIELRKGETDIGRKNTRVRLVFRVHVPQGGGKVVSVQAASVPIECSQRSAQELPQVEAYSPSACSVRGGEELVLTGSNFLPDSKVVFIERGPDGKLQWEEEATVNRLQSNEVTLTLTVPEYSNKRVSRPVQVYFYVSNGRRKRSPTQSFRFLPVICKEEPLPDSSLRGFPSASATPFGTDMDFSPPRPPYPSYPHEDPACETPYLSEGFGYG

[10] = molecular target: T5, NFATp rel domain (353 aa, homologous to murine NFATp 185-537) (Homo sapiens, UniProt Q13469 SEQ:390-742); assay: EMSA; probe length not stated, core SEQ 15; affinity similar to NFATc and NFAT3; 50 mM KCl, RT; also purified on SEQ 17 affinity resin; settings: tags: N-terminal 8 aa heart muscle kinase site (pT7-HMK), E. coli
T5 sequence: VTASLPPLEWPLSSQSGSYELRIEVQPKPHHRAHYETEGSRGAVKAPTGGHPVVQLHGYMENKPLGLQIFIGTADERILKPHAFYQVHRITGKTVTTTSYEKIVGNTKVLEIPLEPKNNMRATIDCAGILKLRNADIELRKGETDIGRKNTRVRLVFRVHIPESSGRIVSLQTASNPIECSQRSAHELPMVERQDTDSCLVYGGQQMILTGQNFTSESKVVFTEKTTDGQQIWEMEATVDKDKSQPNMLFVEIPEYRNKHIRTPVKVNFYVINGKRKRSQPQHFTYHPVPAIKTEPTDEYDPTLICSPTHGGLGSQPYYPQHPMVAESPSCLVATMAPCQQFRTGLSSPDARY

Work on “3x antigen response element (-286 to -257) tk reporter” yielded an activity (fold activation) [1] of 140.

B1: IL-2 NFAT/AP-1 composite element (dsDNA)
DNA 1: GGAGGAAAAACTGTTTCATACAGAAGGCGT
DNA 2: ACGCCTTCTGTATGAAACAGTTTTTCCTCC
B1: binds [2]; binds [3]; binds [4]. B1: binds [5].

B2: IL-2 promoter NFAT site (distal antigen response element) (dsDNA)
DNA 1: GGAAAAACTG
DNA 2: CAGTTTTTCC
B2: no binding [6].

B3: IL-4 promoter NFAT site (dsDNA)
DNA 1: TACATTGGAAAATTTTATTACAC
DNA 2: GTGTAATAAAATTTTCCAATGTA
B3 was tested, and the binding signal [7] was > 10 fold lower affinity than NFATp, NFATc, NFAT3, the binding result [8] was “binds” and the binding result [9] was “binds”. B3: binds [10].
